Patent US20170095512A1, “METHODS OF INDUCING MYELINATION AND MATURATION OF OLIGODENDROCYTES” (KADIMASTEM LTD., priority 2014, published 2017)

Assays:
[1] = tested on: glial progenitor cells derived from human ES cells (Olig2 positive cells); assay: hOPC differentiation assay, Olig2 positive cells (immunostaining, high content screening); assay type: cell-based; conditions: days 21, 28, 35, 42; noggin 100 ng/ml; LDN-193189 62.5 nM and 125 nM
Procedure: In order to initiate differentiation 20,000 GPCs were seeded in each well of Matrigel coated plates of 96 wells, or on PolyD-Lysine/laminin (PDL/lam)-coated 96 well plates. Cells were grown in GM media for two to three days. Then GM was replaced by differentiation medium without growth factors, (DMEM/F12, 1% B27, 0.5% N2, Vitamin C (Sigma, 50 ug/ml). Differentiation medium was supplemented with the following tested compounds: […] All media were replaced every other day. The oligodendrocyte lineage cells were characterized by the expression of a transcription factor olig2. The rabbit polyclonal AB anti olig2 (Millipore cat AB9610) was added to PFA fixed cells. […] ArrayScan VTI HCS reader system (Cellomis, Thermo-scientific) was used for scanning at least 20 fields for each tested well under 10× objective in both assays (differentiation and myelination). […] For myelination assay, the same morphological parameters were tested and in addition: areas of myelinated axons in pixels (MBP&NF overlap area) and Number of myelinated regions (MBP&NF overlap count) were also analyzed. […] The 4-parameter Hill-Slope curve fittings were generated by GraphPad Prism software using least squares fitting method and EC50 values were calculated. […] Time points used for analysis are 21, 28, 35 and 42 days of differentiation, for each time point 20 fields were analyzed. […]

[2] = tested on: hPSC derived oligodendrocytes co-cultured with rodent dorsal root ganglia neurons (MBP+ cells); assay: Co-culture myelination assay (human oligodendrocytes with DRG neurons), MBP staining; assay type: cell-based; conditions: 14 days co-culture; Noggin 50 ng/ml; LDN-193189 125 nM
Procedure: ArrayScan VTI HCS reader system (Cellomis, Thermo-scientific) was used for scanning at least 20 fields for each tested well under 10× objective in both assays (differentiation and myelination). Cellomics Neural profiling bio-application was used for processing and analyzing the images. For differentiation assay, the following parameters were tested: number and percentage of O4+ cells, number of processes, processes length and number of branching points. For myelination assay, the same morphological parameters were tested and in addition: areas of myelinated axons in pixels (MBP&NF overlap area) and Number of myelinated regions (MBP&NF overlap count) were also analyzed. Modifications in the Neuro-profiling bio-application were conducted for this specific purpose. T-test analysis was used to compare between treatments. The 4-parameter Hill-Slope curve fittings were generated by GraphPad Prism software using least squares fitting method and EC50 values were calculated. […]
For testing maturation and myelination capacity of the hPSC derived oligodendrocytes, a co-culture system between rodent dorsal root ganglia (DRGs) and hPSCs derived oligodendrocytes was used. The number of MBP+ cells (MBP, a marker of oligodendrocytes' myelin) and Myelin formation (measured by co-localization area between MBP and neurofilament positive neuronal axons) was quantified.

B1: Noggin: the inhibitor of BMP signaling noggin (R&D) (protein, UniProt Q13253 28-232, looked up)
Noggin: QHYLHIRPAPSDNLPLVDLIEHPDPIFDPKEKDLNETLLRSLLGGHYDPGFMATSPPEDRPGGGGGAAGGAEDLAELDQLLRQRPSGAMPSEIKGLEFSEGLAQGKKQRLSKKLRRKLQMWLWSQTFCPVLYAWNDLGSRFWPRYVKVGSCFSKRSCSVPEGMVCKPSKSVHLTVLRWRCQRRGGQRCGWIPIQYPIISECKCSC
- conversion of neural stem cells to Olig2 positive cells [1]: stimulate the conversion of neural stem cells to Olig2 positive cells
- Myelin fibers [2]: Myelin fibers are observed
